Test results as given in patent US20050106655A1.

Columns and labels:
[1] = target: PKA (protein kinase A) catalytic unit, Promega; assay: cell-based or functional assay
[2] = system: T1, Lissamine rhodamine-labeled peptide substrate (Dye-RPKPVE-Norvaline-WRKpSA)
T1 sequence: RPKPVEXWRKSA

[3] = target: T2, Lissamine rhodamine-labeled peptide substrate (Dye-QQQEVYGMMPRDpSA)
T2 chain: QQQEVYGMMPRDSA

Molecule: PKI, a known synthetic peptide inhibitor of PKA
- IC50 of inhibition of PKA activity (phosphorylation of Lissamine Rhodamine-labeled Kemptide, Fe(III) fluorescence quench assay) [1]: 2.6 nM

Molecule: Recombinant MMP-3 catalytic subunit (Matrix Metalloproteinase 3), Calbiochem
- Km (protease assay, fluorescence quench) [2]: Km was 1.44±0.15 µM

B1: Calpain 1 from human erythrocytes, Calbiochem (protein)
chain 1: SEEIITPVYCTGVSAQVQKQRARELGLGRHENAIKYLGQDYEQLRVRCLQSGTLFRDEAFPPVPQSLGYKDLGPNSSKTYGIKWKRPTELLSNPQFIVDGATRTDICQGALGDCWLLAAIASLTLNDTLLHRVVPHGQSFQNGYAGIFHFQLWQFGEWVDVVVDDLLPIKDGKLVFVHSAEGNEFWSALLEKAYAKVNGSYEALSGGSTSEGFEDFTGGVTEWYELRKAPSDLYQIILKALERGSLLGCSIDISSVLDMEAITFKKLVKGHAYSVTGAKQVNYRGQVVSLIRMRNPWGEVEWTGAWSDSSSEWNNVDPYERDQLRVKMEDGEFWMSFRDFMREFTRLEICNLTPDALKSRTIRKWNTTLYEGTWRRGSTAGGCRNYPATFWVNPQFKIRLDETDDPDDYGDRESGCSFVLALMQKHRRRERRFGRDMETIGFAVYEVPPELVGQPAVHLKRDFFLANASRARSEQFINLREVSTRFRLPPGEYVVVPSTFEPNKEGDFVLRFFSEKSAGTVELDDQIQANLPDEQVLSEEEIDENFKALFRQLAGEDMEISVKELRTILNRIISKHKDLRTKGFSLESCRSMVNLMDRDGNGKLGLVEFNILWNRIRNYLSIFRKFDLDKSGSMSAYEMRMAIESAGFKLNKKLYELIITRYSEPDLAVDFDNFVCCLVRLETMFRFFKTLDTDLDGVVTFDLFKWLQLTMFA
chain 2: MFLVNSFLKGGGGGGGGGGGLGGGLGNVLGGLISGAGGGGGGGGGGGGGGGGGGGGTAMRILGGVISAISEAAAQYNPEPPPPRTHYSNIEANESEEVRQFRRLFAQLAGDDMEVSATELMNILNKVVTRHPDLKTDGFGIDTCRSMVAVMDSDTTGKLGFEEFKYLWNNIKRWQAIYKQFDTDRSGTICSSELPGAFEAAGFHLNEHLYNMIIRRYSDESGNMDFDNFISCLVRLDAMFRAFKSLDKDGTGQIQVNIQEWLQLTMYS
- Km (protease assay, fluorescence quench) [3]: Km was 0.17±0.01 µM
